Data published in paper PMC4309261.

Target: Sp1 (UniProt P08047 2-785)
Experiment: EMSA

Sp1, sequence (P08047 2-785): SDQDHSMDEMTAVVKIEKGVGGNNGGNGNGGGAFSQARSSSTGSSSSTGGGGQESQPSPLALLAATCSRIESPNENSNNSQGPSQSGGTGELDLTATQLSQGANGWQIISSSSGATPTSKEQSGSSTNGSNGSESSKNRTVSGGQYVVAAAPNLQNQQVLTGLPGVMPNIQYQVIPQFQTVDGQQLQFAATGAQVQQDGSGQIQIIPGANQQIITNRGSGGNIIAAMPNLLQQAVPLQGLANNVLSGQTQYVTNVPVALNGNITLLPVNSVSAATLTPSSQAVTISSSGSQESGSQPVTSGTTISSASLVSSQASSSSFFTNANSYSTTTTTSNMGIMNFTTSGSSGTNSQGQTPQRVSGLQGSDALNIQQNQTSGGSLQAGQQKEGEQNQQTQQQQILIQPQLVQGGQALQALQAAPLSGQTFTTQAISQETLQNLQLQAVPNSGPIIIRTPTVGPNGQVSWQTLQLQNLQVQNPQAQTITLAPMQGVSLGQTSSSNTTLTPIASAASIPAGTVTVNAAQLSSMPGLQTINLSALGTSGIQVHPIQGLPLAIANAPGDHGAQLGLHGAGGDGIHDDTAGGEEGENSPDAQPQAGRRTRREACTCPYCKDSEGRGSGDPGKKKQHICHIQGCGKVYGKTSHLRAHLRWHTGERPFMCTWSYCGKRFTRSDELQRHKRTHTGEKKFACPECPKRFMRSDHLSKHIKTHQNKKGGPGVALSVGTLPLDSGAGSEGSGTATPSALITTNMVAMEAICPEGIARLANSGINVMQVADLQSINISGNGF

B1: EZH2 promoter GC-rich oligo, mutant (dsDNA)
DNA 1: ACTTGGCTTCCAGCACCCGAAAAGCTTCTCCAACGTTCGGGAACTCTGCGGCGCCG
DNA 2: CGGCGCCGCAGAGTTCCCGAACGTTGGAGAAGCTTTTCGGGTGCTGGAAGCCAAGT
B1: no binding.

B2: EZH2 promoter GC-rich oligo, wild type (dsDNA)
DNA 1: ACTTGGCTTCCAGCACCCGCCCCGCCCCTCCCCCGCCCGGGAACTCTGCGGCGCCG
DNA 2: CGGCGCCGCAGAGTTCCCGGGCGGGGGAGGGGCGGGGCGGGTGCTGGAAGCCAAGT
B2: binds.
